One block for each binder: values may come before it.
Key:
[1] = biological target: T1, CD3e subunit of the T cell receptor on human T cells (human, UniProt P07766 23-207); assay: cell-based or functional assay
[2] = biological target: T1, CD3e subunit of the T cell receptor on …; assay: cell-based or functional assay; remark: listed apart in the source

T1 sequence (P07766 23-207): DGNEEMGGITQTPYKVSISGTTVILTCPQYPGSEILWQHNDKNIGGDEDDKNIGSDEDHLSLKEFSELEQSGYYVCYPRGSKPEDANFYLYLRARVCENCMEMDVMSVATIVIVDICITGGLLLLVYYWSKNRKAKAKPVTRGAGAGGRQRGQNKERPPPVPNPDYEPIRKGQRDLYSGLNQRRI

EC50 of NFκB-luciferase reporter activation, Jurkat/NFκBLuc cells; in absence of target cells [1]: 0.21 µg/mL | EC50 of T cell activation (CD69+/CD25+), human PBMC Donor 1; column head: in absence of target cells [1]: 0.526 µg/mL | EC50 of T cell activation (CD69+/CD25+), human PBMC Donor 2; column head: in absence of target cells [1]: 0.169 µg/mL
B1: purified anti-CD3 homodimer (product-related impurity isolated from the αCD20/αCD3 TDB purification process) (antibody, V domains shown)
VH: EVQLVQSGAEVKKPGASVKVSCKASGYTFTNYYIHWVRQAPGQGLEWIGWIYPGDGNTKYNEKFKGRATLTADTSTSTAYLELSSLRSEDTAVYYCARDSYSNYYFDYWGQGTLVTVSS
VL: DIVMTQSPDSLAVSLGERATINCKSSQSLLNSRTRKNYLAWYQQKPGQPPKLLIYWASTRESGVPDRFSGSGSGTDFTLTISSLQAEDVAVYYCTQSFILRTFGQGTKVEIK

luciferase activity of Jurkat/NFκBLuciferase clone 2 in the presence of a CD20 expressing target cell line, relative to anti-CD3 homodimer [2]: 1000 fold | EC50 of NFκB-luciferase reporter activation, Jurkat/NFκBLuc cells; in presence of target cells [1]: 0.0013 µg/mL | EC50 of T cell activation (CD69+/CD25+), human PBMC Donor 1; in presence of target cells [1]: 0.0055 µg/mL | EC50 of T cell activation (CD69+/CD25+), human PBMC Donor 2; in presence of target cells [1]: 0.0044 µg/mL
B2: αCD20/αCD3 TDB (T cell dependent bispecific antibody; anti-CD20 Mab2 / anti-CD3 Mab1) (bispecific antibody, V domains shown)
VH 1: EVQLVESGGGLVQPGGSLRLSCAASGYTFTSYNMHWVRQAPGKGLEWVGAIYPGNGDTSYNQKFKGRFTISVDKSKNTLYLQMNSLRAEDTAVYYCARVVYYSNSYWYFDVWGQGTLVTVSS
VL 1: DIQMTQSPSSLSASVGDRVTITCRASSSVSYMHWYQQKPGKAPKPLIYAPSNLASGVPSRFSGSGSGTDFTLTISSLQPEDFATYYCQQWSFNPPTFGQGTKVEIKR
VH 2: B1 VH
VL 2: B1 VL

— patent publication US12007398
